Measurements taken from paper PMC5296908.

Molecular target: ADAMTS17-PCD (human)
Test: SPR; ADAMTS17-PCD (3300 RU) or ADAMTS17-AD (2530 RU) amine-coupled to a CM5 chip, BIAcore 3000; analytes flowed at 20 μl/min; 25 °C; TBS with 2 mM CaCl2 and 0.005% SP20; 1:1 stoichiometry assumed

Substance: ADAMTS17-PCD (domain or fragment)
- Kd: 1400 nM
